Data published in publication PMC7404038, “Chaperone-Like Activity of HSPB5: The Effects of Quaternary Structure Dynamics and Crowding” (International Journal of Molecular Sciences, 2020).

T1: Ca2+-depleted α-lactalbumin (UniProt P00711 20-142)
T1 sequence (looked up): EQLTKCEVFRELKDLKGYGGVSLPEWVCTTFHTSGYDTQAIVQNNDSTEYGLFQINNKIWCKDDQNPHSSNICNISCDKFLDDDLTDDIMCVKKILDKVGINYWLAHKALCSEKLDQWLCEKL

B1: Human full-length untagged HSPB5 (αB-crystallin) (natural protein, UniProt P02511 1-175, looked up)
chain: MDIAIHHPWIRRPFFPFHSPSRLFDQFFGEHLLESDLFPTSTSLSPFYLRPPSFLRAPSWFDTGLSEMRLEKDRFSVNLDVKHFSPEELKVKVLGDVIEVHGKHEERQDEHGFISREFHRKYRIPADVDPLTITSSLSSDGVLTVNGPRKQVSGPERTIPITREEKPAVTAAPKK
notes: αB-crystallin (HSPB5), human, full length, untagged; subunit mass 20.2 kDa as printed; Polydisperse oligomer whose size depends on concentration, temperature and crowding; the preparation was a gift of N. Sluchanko; also called the chaperone; source: expressed and purified as described earlier [104]
B2: glycogen phosphorylase b from rabbit skeletal muscles (enzyme, UniProt P00489 1-843, looked up)
chain: MSRPLSDQEKRKQISVRGLAGVENVTELKKNFNRHLHFTLVKDRNVATPRDYYFALAHTVRDHLVGRWIRTQQHYYEKDPKRIYYLSLEFYMGRTLQNTMVNLALENACDEATYQLGLDMEELEEIEEDAGLGNGGLGRLAACFLDSMATLGLAAYGYGIRYEFGIFNQKICGGWQMEEADDWLRYGNPWEKARPEFTLPVHFYGRVEHTSQGAKWVDTQVVLAMPYDTPVPGYRNNVVNTMRLWSAKAPNDFNLKDFNVGGYIQAVLDRNLAENISRVLYPNDNFFEGKELRLKQEYFVVAATLQDIIRRFKSSKFGCRDPVRTNFDAFPDKVAIQLNDTHPSLAIPELMRVLVDLERLDWDKAWEVTVKTCAYTNHTVLPEALERWPVHLLETLLPRHLQIIYEINQRFLNRVAAAFPGDVDRLRRMSLVEEGAVKRINMAHLCIAGSHAVNGVARIHSEILKKTIFKDFYELEPHKFQNKTNGITPRRWLVLCNPGLAEIIAERIGEEYISDLDQLRKLLSYVDDEAFIRDVAKVKQENKLKFAAYLEREYKVHINPNSLFDVQVKRIHEYKRQLLNCLHVITLYNRIKKEPNKFVVPRTVMIGGKAAPGYHMAKMIIKLITAIGDVVNHDPVVGDRLRVIFLENYRVSLAEKVIPAADLSEQISTAGTEASGTGNMKFMLNGALTIGTMDGANVEMAEEAGEENFFIFGMRVEDVDRLDQRGYNAQEYYDRIPELRQIIEQLSSGFFSPKQPDLFKDIVNMLMHHDRFKVFADYEEYVKCQERVSALYKNPREWTRMVIRNIATSGKFSSDRTIAQYAREIWGVEPSRQRLPAPDEKIP
notes: glycogen phosphorylase, muscle form, b form, rabbit; subunit 97.4 kDa as printed; In the assays partially unfolded by heating at 48 °C; also called Phb; muscle glycogen phosphorylase b

Tests used:
[1] = molecular target: the molecule itself; experiment: AUC; sedimentation velocity, Phb 0.4 mg/mL, HSPB5 0.26 mg/mL and their mixture, Hepes buffer with PEG 20 kDa 25 mg/mL and PVP 25 kDa 12.5 mg/mL (mixed crowding), 48 °C, 48,000 rpm
[2] = molecular target: T1, Ca2+-depleted α-lactalbumin; experiment: cell-based or functional assay
[3] = molecular target: B2; experiment: cell-based or functional assay
[4] = molecular target: the molecule itself; experiment: AUC; sedimentation velocity, Phb 0.5 mg/mL with HSPB5 0, 0.025 or 0.075 mg/mL, 30 mM Hepes, pH 6.8, 0.1 M NaCl, 0.2 mM EDTA, 48 °C, 48,000 rpm; masses by the Svedberg equation with diffusion coefficients from DLS

| initial stoichiometry S0 of the HSPB5-αLa complexes from suppression of DTT-induced aggregation of αLa at 37 °C (DLS; (Kagg/Kagg,0)^1/b versus [HSPB5]/[αLa]) [2] | stoichiometry S0 of the chaperone-target protein complex from suppression of thermal aggregation of Phb at 48 °C (DLS; Kagg/Kagg,0 = 1 − x/S0) [3] | Binder | binding result [1] | stoichiometry N [4] |
| --- | --- | --- | --- | --- |
| 0.011 HSPB5 subunits per αLa molecule (molar ratio) | 0.31 HSPB5 subunits per Phb monomer (molar ratio) | B1 | binds | – |
| – | – | B2 | – | 2 |
